Measured values reported in the supplement of paper PMC9170038.

Test system: MS2 coat protein
Experiment: apparent KD of MS2 coat protein; designed switch direction (-1 OFF switch, 1 ON switch): 1; higher = weaker reporter binding
Method in brief: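 Apparent KD, taken as the median over clusters for each design, was obtained by curve-fitting normalised cluster fluorescence. Designed RNA switches had been transcribed on Illumina chips by stalled E. coli RNA polymerase and titrated with SNAP-549-labelled MS2 coat protein, doubling from 0.7 or 1.5 nM to 3 µM.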

[1] = Eterna round: R95, input ligand: FMN 200 uM
[2] = Eterna round: R95, input ligand: microRNA oligo, concentration not stated
[3] = Eterna round: R95, input ligand: none
[4] = input ligand: microRNA oligo, concentration not stated

| Sequence | apparent KD of MS2 coat protein [1] | apparent KD of MS2 coat protein [2] | apparent KD of MS2 coat protein [3] | apparent KD of MS2 coat protein (input ligand: FMN 200 uM) | apparent KD of MS2 coat protein [4] | apparent KD of MS2 coat protein (input ligand: none) |
| --- | --- | --- | --- | --- | --- | --- |
| AUAAAACAUGAGGAUCACCCAUGUCAACAAAUUCGAGGAUAUGGGCAAAUAAAAUAAGAACCAGAAGGCGAAUAAU [salish99_ss1_r3_038] (puzzle: Same State 1) | 18.1 nM | 104 nM | 86.1 nM | – | – | – |
| GGCAGGUGCAGGCUUGCUUGCACCUGGAGACAUGAGGAUCACCCAUGUUUGGGACAAGCUUUGCUCUUCGUCUUUUC [JL ViennaUCT Isusreraar mod 6] (puzzle: Sensor for hsa-mir-208a) | 74.1 nM | 105 nM | 107 nM | – | – | – |
| CGGAAAAUCGUAGGAUAUCUAGGAUAUGAACGAGGAUCACCCGAGCAGCAUCAGCGCAUCAGAGGAGAGAAGGACGAUGAUGCG [pwkr ssNG2 2F5 2FMN.5] (Eterna round: R96, puzzle: Same State NG 2) | – | – | – | 1930 nM | 1100 nM | 1510 nM |
| GGUACUAACACAGGAUAUGCUAUCCUUUGGGUAGCAGAAGGGUGGUACAUGAGGAUCACCCAUGUGGUGCCAGGGCGUGAGCCC [JL SSNG1 1.96] (Eterna round: R96, puzzle: Same State NG 1) | – | – | – | 408 nM | 538 nM | 659 nM |
| AAUAAGUUCAGCUCGUCUUGCGCCGACUGACAUGAGGAUCACCCAUGUGGAUUCCAAGAGAUCCAUUGGCGUGUUUC [Erisdian] (puzzle: Sensor for hsa-mir-208a) | 37.9 nM | 87.6 nM | 79 nM | – | – | – |
| UCUUGGUUUUUGCUCGUUUUUUGUGUUGAACAUGAGGAUCACCCAUGUAUUGUACGGUCCGGUUUGGUAAUGGUCCG [JMF 10] (puzzle: Sensor for hsa-mir-208a) | 24.4 nM | 16.1 nM | 27.8 nM | – | – | – |
| CGCAAAGUGUGAGGAUAUUCACACAUGAGGAUCACCCAUGUGACGGUUCCGGCCAGAGGAGAGCAGGAGAAGGCACAACGCGAG [Eternabot solution 5] (Eterna round: R96, puzzle: Same State NG 2) | – | – | – | 36.1 nM | 101 nM | 120 nM |
| UGUUAACAUGAGGAUCACCCAUGUCAAAUGAAUCGAGGAUAUGGAAAGUAAUAAGAUGAACUAGAAGGCGAAGUUG [Altered State 1-18 - Jieux - Same State 1] (puzzle: Same State 1) | 46.2 nM | 87.9 nM | 86.7 nM | – | – | – |
| GUAUCUACAGGUUGCGAUGCUCGUCUGAUACAUGAGGAUCACCCAUGUUAUAGCCCUGUGCUUGCGCAGGGCUGAUU [Sensor for hsa-mir-208a ( MOD of Tearor v.2 )] (Eterna round: R96, puzzle: Sensor for hsa-mir-208a) | – | – | – | 105 nM | 26.7 nM | 84.6 nM |
| ACAUGAGGAUCACCCAUGUAUAGAUUUGAAUCUUAAGUUACGUAGGAUAUCGUGUUUAGUAUCAUCGAGAAGGACGAUCUGAUA [JR_SSNG3_Sub067] (Eterna round: R96, puzzle: Same State NG 3) | – | – | – | 19.7 nM | 17.2 nM | 26 nM |
| AGUCCAGCCUGAGCUGGACAAAAGCAUGUACAUGAGGAUCACCCAUGUCAUGUGCAAGCUUUUUGCUCGUCUUAAUA [Zipper 49 - 5] (puzzle: Sensor for hsa-mir-208a) | 64.5 nM | 11.9 nM | 70.3 nM | – | – | – |
| AGUCCAGCCUGAGCUGGACAAAAGCAUGUACAUGAGGAUCACCCAUGUUCAUGUACAAGCUUUUUGCUCGAAUUAAA [Mat - hsa-mir-208a - Mod of JL - 53] (puzzle: Sensor for hsa-mir-208a) | 558 nM | 15.4 nM | 822 nM | – | – | – |
